Source: publication PMC11151058, “The Transpeptidase Sortase A Binds Nucleic Acids and Mediates Mammalian Cell Labeling”

What was measured:
mgSrtA [1] = target: T1, mgSrtA (Staphylococcus aureus, UniProt Q2FV99 60-206, P94R;D124G;D160N;D165A;Y187L;E189R;K190E;K196T;F200L); test: band shift, SDS western blot; Western-blot shift: 10 uM protein, 20 uM oligo, HBSS, 37 C, 30 min (Fig 3D 10 min); EMSA: HBSS, 37 C, 30 min, 6% PAGE; MST: 20 mM HEPES, 300 mM NaCl, pH 6.8, 0.1% Tween 20, 25 C; conditions: protein: recombinant, tags: N-terminal 6xHis (pET-28a), label: 5'Biotin
mgSrtA [2] = target: T1, mgSrtA; test: band shift, SDS western blot; 20 uM oligo; Western-blot shift: 10 uM protein, 20 uM oligo, HBSS, 37 C, 30 min (Fig 3D 10 min); EMSA: HBSS, 37 C, 30 min, 6% PAGE; MST: 20 mM HEPES, 300 mM NaCl, pH 6.8, 0.1% Tween 20, 25 C; conditions: protein: recombinant; tags: N-terminal 6xHis (pET-28a); label: 5'Biotin
mgSrtA [3] = target: T1, mgSrtA; test: band shift, SDS western blot; 1 uM oligo; Western-blot shift: 10 uM protein, 20 uM oligo, HBSS, 37 C, 30 min (Fig 3D 10 min); EMSA: HBSS, 37 C, 30 min, 6% PAGE; MST: 20 mM HEPES, 300 mM NaCl, pH 6.8, 0.1% Tween 20, 25 C; conditions: protein: recombinant; tags: N-terminal 6xHis (pET-28a); label: 5'Biotin
mgSrtA-L200F = mgSrtA-L200F (Staphylococcus aureus, UniProt Q2FV99 60-206, P94R;D124G;D160N;D165A;Y187L;E189R;K190E;K196T); test: band shift, SDS western blot; Western-blot shift: 10 uM protein, 20 uM oligo, HBSS, 37 C, 30 min (Fig 3D 10 min); EMSA: HBSS, 37 C, 30 min, 6% PAGE; MST: 20 mM HEPES, 300 mM NaCl, pH 6.8, 0.1% Tween 20, 25 C; conditions: protein: recombinant; tags: N-terminal 6xHis (pET-28a); label: 5'Biotin, 3'FITC
mgSrtA-H120A = mgSrtA-H120A (Staphylococcus aureus, UniProt Q2FV99 60-206, P94R;H120A;D124G;D160N;D165A;Y187L;E189R;K190E;K196T;F200L); test: as above; conditions: protein: recombinant; tags: N-terminal 6xHis (pET-28a); label: 5'Biotin, 3'FITC
5M SrtA = 5M SrtA (Staphylococcus aureus, UniProt Q2FV99 60-206, P94R;D160N;D165A;K190E;K196T); test: as above; conditions: protein: recombinant; tags: N-terminal 6xHis (pET-28a); label: 5'Biotin, 3'FITC
mgSrtA-mono = mgSrtA-mono (Staphylococcus aureus, UniProt Q2FV99 60-206, P94R;D124G;N132A;K137A;Y143A;D160N;D165A;Y187L;E189R;K190E;K196T;F200L); test: as above; conditions: protein: recombinant; tags: N-terminal 6xHis (pET-28a); label: 5'Biotin, 3'FITC
mgSrtA-C184A = mgSrtA-C184A (Staphylococcus aureus, UniProt Q2FV99 60-206, P94R;D124G;D160N;D165A;C184A;Y187L;E189R;K190E;K196T;F200L); test: as above; conditions: protein: recombinant; tags: N-terminal 6xHis (pET-28a); label: 5'Biotin, 3'FITC
mgSrtA-R197A = mgSrtA-R197A (Staphylococcus aureus, UniProt Q2FV99 60-206, P94R;D124G;D160N;D165A;Y187L;E189R;K190E;K196T;R197A;F200L); test: as above; conditions: protein: recombinant; tags: N-terminal 6xHis (pET-28a); label: 5'Biotin, 3'FITC
WTSrtA = WTSrtA (Staphylococcus aureus, UniProt Q2FV99 60-206); test: as above; conditions: protein: recombinant; tags: N-terminal 6xHis (pET-28a); label: 5'Biotin, 3'FITC
mgSrtA-triple = mgSrtA-triple (Staphylococcus aureus, UniProt Q2FV99 60-206, P94R;H120A;D124G;D160N;D165A;C184A;Y187L;E189R;K190E;K196T;R197A;F200L); test: as above; conditions: protein: recombinant; tags: N-terminal 6xHis (pET-28a); label: 5'Biotin, 3'FITC
mgSrtA [4] = target: T1, mgSrtA; test: band shift, SDS western blot; 50 uM oligo; Western-blot shift: 10 uM protein, 20 uM oligo, HBSS, 37 C, 30 min (Fig 3D 10 min); EMSA: HBSS, 37 C, 30 min, 6% PAGE; MST: 20 mM HEPES, 300 mM NaCl, pH 6.8, 0.1% Tween 20, 25 C; conditions: protein: recombinant; tags: N-terminal 6xHis (pET-28a); label: 5'Biotin

Binder: GGGG (ssDNA) [4G (Fig S17)]
- binding result (mgSrtA [1]): binds

Binder: GGGGGGGG (ssDNA) [8G]
- binding result (mgSrtA [2]): binds

Binder: GGGGCGGGGTGGGGC (ssDNA) [15G]
- binding result (mgSrtA [3]): binds

Binder: GGGG (ssDNA) [BF 4G]
- binding result (mgSrtA-L200F): binds
- binding result (mgSrtA-H120A): binds
- binding result (5M SrtA): binds
- binding result (mgSrtA-mono): binds
- binding result (mgSrtA-C184A): binds
- binding result (mgSrtA [1]; 3'FITC): binds
- binding result (mgSrtA-R197A): binds
- binding result (WTSrtA): binds
- binding result (mgSrtA-triple): binds

Binder: GGGGCGGGGTGGGGCGGGGT (ssDNA) [20G]
- binding result (mgSrtA [3]): binds

Binder: GGGGGG (ssDNA) [6G]
- binding result (mgSrtA [4]): binds
